Results as given in patent US20250000946A1 (WUXI BIOLOGICS IRELAND, published 2025).
Changes are numbered by the printed parent chain. Names may count otherwise. Where two headings read alike, the source gives them in different places. Each block holds one binder with its values, some of them ahead of it.

What was measured:
[1] = target: T1, Human IL-2Rβ/γ (intermediate affinity IL-2 receptor) (human, UniProt P14784 27-551; P31785 23-369); test: cell-based or functional assay
T1 sequence (looked up) 1: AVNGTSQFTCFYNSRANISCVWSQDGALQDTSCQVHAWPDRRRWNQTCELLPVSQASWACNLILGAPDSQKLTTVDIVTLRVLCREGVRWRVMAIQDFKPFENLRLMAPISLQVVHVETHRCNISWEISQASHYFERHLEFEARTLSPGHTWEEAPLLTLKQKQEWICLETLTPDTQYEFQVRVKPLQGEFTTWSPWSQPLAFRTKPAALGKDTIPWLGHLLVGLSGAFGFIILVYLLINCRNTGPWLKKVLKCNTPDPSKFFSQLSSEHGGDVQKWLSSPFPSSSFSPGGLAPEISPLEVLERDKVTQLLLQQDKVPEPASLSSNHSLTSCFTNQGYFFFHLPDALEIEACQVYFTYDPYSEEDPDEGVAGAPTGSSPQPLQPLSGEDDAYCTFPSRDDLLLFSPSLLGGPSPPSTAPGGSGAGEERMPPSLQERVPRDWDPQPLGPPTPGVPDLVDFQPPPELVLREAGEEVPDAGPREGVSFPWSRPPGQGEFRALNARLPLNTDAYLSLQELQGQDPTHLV
T1 sequence (looked up) 2: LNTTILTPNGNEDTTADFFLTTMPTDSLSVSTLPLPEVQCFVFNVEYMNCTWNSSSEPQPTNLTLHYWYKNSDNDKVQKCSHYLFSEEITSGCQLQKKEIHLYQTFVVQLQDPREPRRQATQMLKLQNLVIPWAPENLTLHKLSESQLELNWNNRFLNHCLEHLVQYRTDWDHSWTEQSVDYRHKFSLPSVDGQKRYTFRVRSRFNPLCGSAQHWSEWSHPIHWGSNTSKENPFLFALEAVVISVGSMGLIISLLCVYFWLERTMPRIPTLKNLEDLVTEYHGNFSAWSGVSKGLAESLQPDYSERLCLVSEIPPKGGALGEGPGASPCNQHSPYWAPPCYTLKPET

[2] = target: T2, Human IL-2Rα/β/γ complex (high affinity IL-2 receptor) (human, UniProt P01589 22-272; P14784 27-551; P31785 23-369); test: cell-based or functional assay
T2 sequence (looked up) 1: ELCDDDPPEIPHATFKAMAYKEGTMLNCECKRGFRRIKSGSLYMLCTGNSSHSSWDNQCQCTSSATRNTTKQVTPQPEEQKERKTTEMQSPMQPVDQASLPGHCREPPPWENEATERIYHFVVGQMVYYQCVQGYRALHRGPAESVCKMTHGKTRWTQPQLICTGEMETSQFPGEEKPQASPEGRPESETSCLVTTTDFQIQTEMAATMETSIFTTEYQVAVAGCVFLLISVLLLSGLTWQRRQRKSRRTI
T2 sequence (looked up) 2: T1 sequence (looked up) 1
T2 sequence (looked up) 3: T1 sequence (looked up) 2

[3] = target: T2, Human IL-2Rα/β/γ complex (high affinity …); test: FACS, MJ20 cells
Description: (§1) Human cutaneous T cell lymphoma HH cells, malignant non-Hodgkin's lymphoma NK92 cells and cutaneous T cell lymphoma MJ20 cells were used for binding assay. They both constitutively express IL-2Rβ (CD122) and […] (CD132), and NK92 and MJ20 also expresses IL-2Rα (CD25). HH, NK92 and MJ20 cells were cultured following ATCC guidance, then transferred to a 96-plate for binding analysis. Cells were incubated with IL-2/Fc fusion proteins at the indicated concentrations for 30 min at 4° C. to avoid internalization. Binding was detected by 2nd antibody of PE-anti-human Fc at 4° C. for another 30 min. The median fluorescence intensity (MFI) on HH and NK92 cells was measured using FACS.
(§2) Affinity of IL-2 variants to IL-2Rα/β/γ supported the same results (FIG. 8 and Table 7). […] And T2U0.E44-26, T2U0.E44-27, T2U0.E44-29 and T2U0.E44-30 induced hundreds to thousands affinity reduction in Treg compared to T2U0.E44-1. Binding curves in MJ20 cells (IL-2Rα/β/γ) also achieved similar trend (FIG. 8b). As a result, the method of C-terminal truncation and substitution of 129 was available to achieve IL-2Rβγ attenuated IL-2 variants.

[4] = target: T2, Human IL-2Rα/β/γ complex (high affinity …); test: FACS, MJ20 cells; EC50 fold vs T2U0.E44-1
Description: as §1, §2

[5] = target: T1, Human IL-2Rβ/γ (intermediate affinity …); test: FACS, HH cells; EC50 fold vs T2U0.E44-1
Description: as §1

[6] = target: T1, Human IL-2Rβ/γ (intermediate affinity …); test: FACS, HH cells
Description: as §1

[7] = target: T2, Human IL-2Rα/β/γ complex (high affinity …); test: FACS, NK92 cells
Description: as §1

[8] = target: T2, Human IL-2Rα/β/γ complex (high affinity …); test: FACS, NK92 cells; EC50 fold vs T2U0.E44-1
Description: as §1

[9] = target: T1, Human IL-2Rβ/γ (intermediate affinity …); test: cell-based or functional assay; remark: listed apart in the source
[10] = target: T2, Human IL-2Rα/β/γ complex (high affinity …); test: cell-based or functional assay; remark: listed apart in the source
[11] = target: T1, Human IL-2Rβ/γ (intermediate affinity …); test: cell-based or functional assay; remark: listed apart in the source

B1: W3XX115-T2U0.E44-30.uIgG4V1 (Fc fusion)
chain: APTSSSTKKTQLQLEHLLLDLQMILNGINNYKNPKLTRMLTFKFYMPKKATELKHLQCLEEELKPLEEVLNLAQSKNFHLRPRDLISNINVIVLELKGSETTFMCEYADETATIVEFLNRWITFCQSITESKYGPPCPPCPAPEFLGGPSVFLFPPKPKDTLMISRTPEVTCVVVDVSQEDPEVQFNWYVDGVEVHNAKTKPREEQFNSTYRVVSVLTVLHQDWLNGKEYKCKVSNKGLPSSIEKTISKAKGQPREPQVYTLPPCQEEMTKNQVSLWCLVKGFYPSDIAVEWESNGQPENNYKTTPPVLDSDGSFFLYSRLTVDKSRWQEGNVFSCSVMHEALHNHYTQKSLSLSLG
heavy: EIQLQQSGPELVKPGASVKVSCKASGYSFTDYNMYWVKQSHGESLEWIGYIDPYNGGTRYNQKFKGKATLTVDKSSSTAFMHLNSLTSEDSAVYYCARNGHWDGAWFAYWGQGTLVTVSAASTKGPSVFPLAPCSRSTSESTAALGCLVKDYFPEPVTVSWNSGALTSGVHTFPAVLQSSGLYSLSSVVTVPSSSLGTKTYTCNVDHKPSNTKVDKRVESKYGPPCPPCPAPEFLGGPSVFLFPPKPKDTLMISRTPEVTCVVVDVSQEDPEVQFNWYVDGVEVHNAKTKPREEQFNSTYRVVSVLTVLHQDWLNGKEYKCKVSNKGLPSSIEKTISKAKGQPREPQVCTLPPSQEEMTKNQVSLSCAVKGFYPSDIAVEWESNGQPENNYKTTPPVLDSDGSFFLVSRLTVDKSRWQEGNVFSCSVMHEALHNHYTQKSLSLSLG
light: DIQMNQSPSSLSASLGDTITITCHASQNINVWLSWYQQKPGNIPKLLIYKASNLHTGVPSRFSGSRSGTGFTLTISSLQPEDIATYYCHQGQSYPFTFGSGTKLEIKRTVAAPSVFIFPPSDEQLKSGTASVVCLLNNFYPREAKVQWKVDNALQSGNSQESVTEQDSKDSTYSLSSTLTLSKADYEKHKVYACEVTHQGLSSPVTKSFNRGEC
notes: IL-2 del STLT and I129T; E44 format, IgG4
Potency in human CD8+ T EC50 [1]: 493 nM
Potency reduction (CD8+ T) [1]: 24.7 fold
Potency in human Treg EC50 [2]: 2.64 nM
Potency reduction (Treg) [2]: 1050 fold
EC50 [3]: 183 nM
Affinity reduction [4]: 13 fold

B2: W3XX115-T2U0.E44-9.uIgG4V1 (Fc fusion)
chain: APTSSSTKKTQLQLEHLLLDLQMILNGINNYKNPKLTRMLTFKFYMPKKATELKHLQCLEEELKPLEEVLNLAQSKNFHLRPRDLISNINVIVLELKGSETTFMCEYADETATIVEFLNRWITFCQESKYGPPCPPCPAPEFLGGPSVFLFPPKPKDTLMISRTPEVTCVVVDVSQEDPEVQFNWYVDGVEVHNAKTKPREEQFNSTYRVVSVLTVLHQDWLNGKEYKCKVSNKGLPSSIEKTISKAKGQPREPQVYTLPPCQEEMTKNQVSLWCLVKGFYPSDIAVEWESNGQPENNYKTTPPVLDSDGSFFLYSRLTVDKSRWQEGNVFSCSVMHEALHNHYTQKSLSLSLG
heavy: B1 heavy
light: B1 light
notes: IL-2 with C-terminal 7 aa (SIISTLT) deleted; E44 format, IgG4
Affinity reduction [5]: 1.76 fold
EC50 [6]: 54.5 nM
EC50 [7]: 8.52 nM
Affinity reduction [8]: 1.55 fold
Potency in human CD8+ T EC50 [9]: 96.5 nM
Potency reduction (CD8+ T) [9]: 10.1 fold
Potency in human Treg EC50 [10]: 1.44 nM
Potency reduction (Treg) [10]: 55.6 fold

B3: W3XX115-T2U0.E44-5.uIgG4V1 (Fc fusion)
chain: APTSSSTKKTQLQLEHLLLDLQMILNGINNYKNPKLTRMLTFKFYMPKKATELKHLQCLEEELKPLEEVLNLAQSKNFHLRPRDLISNINVIVLELKGSETTFMCEYADETATIVEFLNRWITFCQSIISESKYGPPCPPCPAPEFLGGPSVFLFPPKPKDTLMISRTPEVTCVVVDVSQEDPEVQFNWYVDGVEVHNAKTKPREEQFNSTYRVVSVLTVLHQDWLNGKEYKCKVSNKGLPSSIEKTISKAKGQPREPQVYTLPPCQEEMTKNQVSLWCLVKGFYPSDIAVEWESNGQPENNYKTTPPVLDSDGSFFLYSRLTVDKSRWQEGNVFSCSVMHEALHNHYTQKSLSLSLG
heavy: B1 heavy
light: B1 light
notes: IL-2 with C-terminal 3 aa (TLT) deleted; E44 format, IgG4
Affinity reduction [5]: 1.62 fold
EC50 [6]: 50.1 nM
EC50 [7]: 14.5 nM
Affinity reduction [8]: 2.63 fold
Potency in human CD8+ T EC50 [9]: 18 nM
Potency reduction (CD8+ T) [9]: 1.89 fold
Potency in human Treg EC50 [10]: 4.62 nM
Potency reduction (Treg) [10]: 179 fold

B4: W3XX115-T2U0.E44-7.uIgG4V1 (Fc fusion)
chain: APTSSSTKKTQLQLEHLLLDLQMILNGINNYKNPKLTRMLTFKFYMPKKATELKHLQCLEEELKPLEEVLNLAQSKNFHLRPRDLISNINVIVLELKGSETTFMCEYADETATIVEFLNRWITFCQSIESKYGPPCPPCPAPEFLGGPSVFLFPPKPKDTLMISRTPEVTCVVVDVSQEDPEVQFNWYVDGVEVHNAKTKPREEQFNSTYRVVSVLTVLHQDWLNGKEYKCKVSNKGLPSSIEKTISKAKGQPREPQVYTLPPCQEEMTKNQVSLWCLVKGFYPSDIAVEWESNGQPENNYKTTPPVLDSDGSFFLYSRLTVDKSRWQEGNVFSCSVMHEALHNHYTQKSLSLSLG
heavy: B1 heavy
light: B1 light
notes: IL-2 with C-terminal 5 aa (ISTLT) deleted; E44 format, IgG4
EC50 [7]: ~515 nM
Affinity reduction [8]: 94 fold
Potency in human CD8+ T EC50 [9]: 5110 nM
Potency reduction (CD8+ T) [9]: 535 fold
Potency in human Treg EC50 [10]: 36.4 nM
Potency reduction (Treg) [10]: 1400 fold

Second part, the binder after the results:

Affinity reduction [5]: 15.8 fold
EC50 [6]: 800 nM
Human CD8+ T Potency EC50 (STAT5 phosphorylation) [11]: 365 nM
Human CD8+ T Potency reduction [11]: 100 fold
B5: W3XX115-T2U0.E44-31.uIgG4V322 (Fc fusion)
chain: B1 chain with F42V, T129L, F145A, L146A
heavy: B1 heavy with F234A, L235A
light: B1 light

Affinity reduction [5]: 17.9 fold
EC50 [6]: 904 nM
Human CD8+ T Potency EC50 (STAT5 phosphorylation) [11]: 379 nM
Human CD8+ T Potency reduction [11]: 104 fold
B6: W3XX115-T2U0.E44-32.uIgG4V322 (Fc fusion)
chain: B1 chain with F42I, T129L, F145A, L146A
heavy: B1 heavy with F234A, L235A
light: B1 light
